Assay results as given in patent publication US20100107264A1.
Values joined by “and” are separate entries in the source; they are usually repeats but may differ in a detail not shown here. Identical values can stand only once.

Target: M144 mutant NS1A protein (L-to-A substitution at position 144) (influenza A/Udorn/72 virus) (UniProt P03495)

## GST-F2F3 (GST fusion of CPSF30 amino acids 61-121, second and third zinc fingers)
  percent of wild-type binding (% of wild-type binding): 5 and 10
